Laboratory results: patent publication US20170196940A1 (RESEARCH FOUNDATION FOR THE STATE UNIVERSITY OF NEW YORK, published 2017)
Positions of bridges follow the written chain, without caps; N, C: chain ends. Non-standard residues stand in square brackets, D forms with d. No end group written: not given here. Bph = 4,4'-bis(methyl)biphenyl crosslink between two cysteines (CL-1)

Key:
Experiment in all cases: cell-based or functional assay
[1] = molecular target: T1, human glucagon-like peptide 1 receptor (GLP-1R) (human, UniProt P43220 24-463)
[2] = molecular target: T2, human glucagon receptor (GCGR) (human, UniProt P47871 26-477)
[3] = molecular target: T1, human glucagon-like peptide 1 receptor …; remark: listed apart in the source
[4] = molecular target: T2, human glucagon receptor (GCGR); remark: listed apart in the source

T2 sequence (P47871 26-477): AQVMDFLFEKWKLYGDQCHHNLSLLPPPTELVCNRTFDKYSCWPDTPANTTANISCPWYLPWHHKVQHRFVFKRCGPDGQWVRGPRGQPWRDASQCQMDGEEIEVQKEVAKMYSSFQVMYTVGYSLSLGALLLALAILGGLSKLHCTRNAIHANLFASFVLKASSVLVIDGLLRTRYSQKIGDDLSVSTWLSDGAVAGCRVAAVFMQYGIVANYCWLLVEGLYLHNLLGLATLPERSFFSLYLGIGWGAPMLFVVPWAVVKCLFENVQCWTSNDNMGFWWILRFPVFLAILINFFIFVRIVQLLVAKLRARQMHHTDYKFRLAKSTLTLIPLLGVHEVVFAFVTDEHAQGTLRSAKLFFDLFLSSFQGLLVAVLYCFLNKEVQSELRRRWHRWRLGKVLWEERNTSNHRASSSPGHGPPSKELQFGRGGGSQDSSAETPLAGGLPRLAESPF

Row | Binder | Agonist activity (nM), EC50, CRE-luciferase reporter in HEK293 cells overexpressing the receptor [1] | Agonist activity (nM), EC50, CRE-luciferase reporter in HEK293 cells overexpressing the receptor [2] | also measured
1 | H[dS]QGTFTSDYSKYLDS[dC]RAQDFVCWLMNTKRNRNNIA-NH2 (linker 17-24 via Bph) [peptide 3] | ~500 nM | 3 nM | fold increase in activity against linear peptide 1, CRE-luciferase reporter assay [3]: 2 fold; fold increase in activity against linear peptide 1, CRE-luciferase reporter assay [4]: 16 fold
2 | H[dS]QGTFTSDYSKYLDECRAQDFVCWLMNTKRNRNNIA-NH2 (cysteine pairing not given here) [peptide 5] | ~400 nM |  | 
3 | H[dS]QGTFTSDYSKYLDECAAKEFICWLMNTKRNRNNIA-NH2 (cysteine pairing not given here) [peptide 7] |  | 30 nM | fold higher potency against peptide 5, CRE-luciferase reporter assay [3]: > 80 fold
4 | H[dS]QGTFTSDYSKYLDSRRAQ[dC]FVQWLMCTKRNRNNIA-NH2 (cysteine pairing not given here) [peptide 2] | > 2000 nM | > 1000 nM | 
5 | H[dS]QGTFTSDYSKYLDSCRAQDFVCWLMNTKRNRNNIA-NH2 (cysteine pairing not given here) [peptide 4] | ~500 nM | 30 nM | fold increase in activity against peptide 1, CRE-luciferase reporter assay [3]: ~2 fold; fold increase in activity against peptide 1, CRE-luciferase reporter assay [4]: ~2 fold

The next lines start with results.

Row | Agonist activity (nM), EC50, CRE-luciferase reporter in HEK293 cells overexpressing the receptor [1] | Agonist activity (nM), EC50, CRE-luciferase reporter in HEK293 cells overexpressing the receptor [2] | Binder | also measured
6 | 0.2 nM | 0.7 nM | H[dS]QGTFTSDYSKYLDECAAKEFICWLMNTKRNRNNIA-NH2 (linker 17-24 via Bph) [peptide 9] | fold increase in activity against linear peptide 7, CRE-luciferase reporter assay [3]: 80 fold; fold increase in activity against linear peptide 7, CRE-luciferase reporter assay [4]: 40 fold
7 |  | 1000 nM | H[dS]QGTFTSDYSKYLDECAVRLFICWLMNTKRNRNNIA-NH2 (cysteine pairing not given here) [peptide 8] | fold higher potency against peptide 5, CRE-luciferase reporter assay [3]: > 80 fold
